Test results as given in the supplement of paper PMC11865577.

What follows are sequences tested on TO-3-N3 (biotin conjugate) (assay: pull-down binding Z-score (relative to library population); higher = stronger binding). Conditions: RNA library: Library-2.
Method in brief: (§1)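 To score binding, a beads-only signal was subtracted, barcoded replicate probes were averaged with the highest and lowest dropped, and the value was converted to a Z-score using the library mean and standard deviation. The input was 1 μg of Cy5- or Cy3-end-labelled RNA library, heat-folded in phosphate/NaCl/KCl buffer and mixed for 60 min at 25 °C with streptavidin beads carrying 100 pmol of biotin-conjugated small molecule. Bound RNA was eluted in hot SDS and hybridised to a DNA barcode microarray at 55.5 °C for 20 h.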

Going from “AUCUGAGGUGACUGGCACAGAAGACUCAGG [hsa-mir-6735]” to “AUCUGAUGUUGAAUACUCUUUAAGU [hsa-mir-1245a]”, the “pull-down binding Z-score” value falls from 0.238 to -0.143.

Compared with “AUCUGCAGGGCAUUGUGCUAACAGGU [hsa-mir-4681]”, “AUCUUCCUGACCUGGUAAUAAUUAGGUGAGAAGGAU [hsa-mir-8069-2_8069-1]” is lower in “pull-down binding Z-score” value: 0.532 for the first, -0.958 for the second.

First: AUGAGAAAUUGGUUUCAA [hsa-mir-8063]
Second: AUGAGCUAAAAAUCCCCAAGCUCU [hsa-mir-4769]
The “pull-down binding Z-score” value of the first is higher: -0.191 for the first, -0.414 for the second.

Compared with “AUGAUAUAUUGUGAGAGCCAUGUCAU [hsa-mir-6718]”, AUGAUUUUUGGGGUCA [hsa-mir-4678] is lower in “pull-down binding Z-score” value: 0.0536 for the first, -0.0616 for the second.

Compared with “AUGCACCCAUAUUUUAAUAUCAAACUAUGACAAAUU [hsa-mir-3974]”, “AUGCAUGGCUGGUGGCGGCGUGCAG [hsa-mir-6722]” is higher in “pull-down binding Z-score” value: -0.386 for the first, 0.897 for the second.

Going from AUGCCCCAGGUGACGUGCUGGGCU [hsa-mir-4526] to “AUGCCUGAGAAUAUAUGAAGGAGGCU [hsa-mir-204]”, the “pull-down binding Z-score” value falls from 0.205 to 0.0552.

Going from AUGCUAAGUCCAUGGGCAAACAU [hsa-mir-5704] to “AUGGAGAACGCCCCCACCAGUUCCCAC [hsa-mir-6767]”, the “pull-down binding Z-score” value rises from -0.258 to 1.67.

Compared with “AUGGAGGCUGCUUCUCCUCAGCAGCUGCCAUA [hsa-mir-3651]”, “AUGGAUAUGGGAACUGUGAUGUCCA [hsa-mir-4768]” is lower in “pull-down binding Z-score” value: -0.15 for the first, -0.305 for the second.

Compared with AUGGCAUUUAAGGAUUGCUAU [hsa-mir-4477a], AUGGGAGCCCAGAGACGUCCUAU [hsa-mir-8074] is higher in “pull-down binding Z-score” value: -0.716 for the first, -0.304 for the second.

Going from “AUGGGGCAGCUGGGAUGGUCCAAAAGGGUGGCCUCA [hsa-mir-1226]” to “AUGGUCUCUAUAUUUAUGAUGAUUAA [hsa-mir-889]”, the “pull-down binding Z-score” value falls from 0.729 to 0.533.

Going from “AUGGUGUUUGUGAGUUGAUUGACAUCGU [hsa-mir-6506]” to AUGGUUAAUGUUCCACAGCCA [hsa-mir-5190], the “pull-down binding Z-score” value rises from -0.398 to -0.134.

Going from “AUGGUUCCUAUUCUGAUCAAUAAACAUGGUUUGAGCCUAGUUACAAUGAUCUAAAAUUCACGGUCCAA [hsa-mir-548o]” to “AUGGUUUAGAGUUACACCCUGGGAGUUAACUGU [hsa-let-7c]”, the “pull-down binding Z-score” value rises from -0.961 to 0.351.

Compared with AUGUCCCUUUAGUUCAAAGU [hsa-mir-2052], “AUGUCUCAGGUCCCCAGCUGAGUCAA [hsa-mir-6513]” is higher in “pull-down binding Z-score” value: -0.246 for the first, 0.633 for the second.

Going from AUGUCUGCUGGGGAACCGGGGCU [hsa-mir-4518] to “AUGUGAUGUCACUGAGGAAAUCACAC [hsa-mir-216b]”, the “pull-down binding Z-score” value falls from 0.587 to -0.223.

First: AUGUGAUGUGAGCAGAUGGUUCUCACU [hsa-mir-6758]
Second: AUGUGAUUGCUGUCCCAAACUCAUGU [hsa-mir-135b]
The “pull-down binding Z-score” value of the first is lower: -0.532 for the first, -0.305 for the second.

Compared with AUGUGUUGUGAUGGCACAGCGU [hsa-mir-592], “AUGUUCACUUGAUUAAUGGCGAAUAU [hsa-mir-1185-2_1185-1]” is higher in “pull-down binding Z-score” value: -0.831 for the first, -0.629 for the second.

First: AUGUUCGCUUCAUUCAUCAUGAAUAA [hsa-mir-655]
Second: AUGUUUAUUGUAAAGAUACUUU [hsa-mir-1305]
The “pull-down binding Z-score” value of the first is higher: 0.297 for the first, -0.643 for the second.

Going from “AUUACUUGUGUUCUAUAUAAAGUAUU [hsa-mir-92a-2]” to “AUUAGACAGAAAAAAGUUAGACACAAAAAAUUGUGUCUAAU [hsa-mir-4759]”, the “pull-down binding Z-score” value rises from -0.393 to 0.284.

Going from “AUUAUGUUUUGGACAUAGAAACAUAAC [hsa-mir-5688]” to AUUCAGACUCAGGU [hsa-mir-921], the “pull-down binding Z-score” value rises from -0.878 to -0.232.

First: AUUCUGAUGAUCACCUAGCCAGAAU [hsa-mir-5583-2]
Second: AUUCUGGACACCAG [hsa-mir-147b]
The “pull-down binding Z-score” value of the first is higher: 1.52 for the first, 0.0367 for the second.

First: AUUCUGGAGUCCAUCUAGAG [hsa-mir-1182]
Second: AUUCUGGCUAGGUGAUCAUCAGAAU [hsa-mir-5583-1]
The “pull-down binding Z-score” value of the first is higher: -0.538 for the first, -0.794 for the second.

Compared with “AUUGAGAGUUCCUUCUCCUGCUCCUGAU [hsa-mir-6766]”, “AUUGAGUUACCUUUCUGACUUUCCCACU [hsa-mir-28]” is higher in “pull-down binding Z-score” value: -0.548 for the first, 0.108 for the second.

First: AUUGCACGUGUGUGAGGCGGGUGCAGU [hsa-mir-33b]
Second: AUUGCAUGUUCUGGUGGUACCCAUGCAAU [hsa-mir-33a]
The “pull-down binding Z-score” value of the first is higher: 0.626 for the first, 0.18 for the second.

Compared with AUUGCUGGACGCUGCCCUGGGCAU [hsa-mir-25], AUUGGAUGGAGUCAGGUCUCUAAU [hsa-mir-200b] is lower in “pull-down binding Z-score” value: 0.362 for the first, -0.126 for the second.

Going from AUUGGCUUGGAUUCUGCAAAGCCU [hsa-mir-7151] to AUUGUACUGUGGUGGUUACAAU [hsa-mir-34b], the “pull-down binding Z-score” value falls from -0.259 to -0.851.

Compared with AUUGUUGCCUCUGCAUGUUACAAU [hsa-mir-8066], “AUUGUUGUGGGGUAGGGAUAUUAGGCCCCAAUUAGAAGAUAACUAU [hsa-mir-98]” is higher in “pull-down binding Z-score” value: -0.204 for the first, 1.03 for the second.

First: AUUUAUGUGAACUAAAAUAUAAAU [hsa-mir-513b]
Second: AUUUCCCAAAGUUGGGAAAA [hsa-mir-320b-2]
The “pull-down binding Z-score” value of the first is higher: 1.21 for the first, 0.0303 for the second.

Compared with “AUUUCUGUAGCUCUGAGACUAGACCU [hsa-mir-544b]”, AUUUCUGUGUUCGUUAGGCAACAG [hsa-mir-221] is higher in “pull-down binding Z-score” value: -0.442 for the first, 0.785 for the second.

Each sequence was assayed on TO-3-N3-2 (biotin conjugate) in the same assay as above. Conditions: RNA library: Library-2.
Method in brief: as §1

Compared with “AUAUGAGCUUCAUUUAUACAUUUCAUAU [hsa-mir-556]”, “AUAUGUGUGUAUAUAUGUACACAUAC [hsa-mir-466]” is lower in “pull-down binding Z-score” value: -0.0541 for the first, -0.378 for the second.

Going from “AUAUUGACACUAUAACAAUAAUGUCAAUAU [hsa-mir-4795]” to “AUCAAAGUGGGGACUCAUGGGGAGAG [hsa-mir-4284]”, the “pull-down binding Z-score” value rises from -0.44 to 1.43.

First: AUCAAGAAAAGAUUUGGUGUUCUUGAU [hsa-mir-4782]
Second: AUCACUGAAAUAUGUCUGAGCUUCUGUU [hsa-mir-4501]
The “pull-down binding Z-score” value of the first is lower: -0.112 for the first, -0.00263 for the second.

First: AUCAGCAGAGACAUGAGGUGAUCAAAAACCUUUUUUCAAAGCAGUGGG [hsa-mir-4300]
Second: AUCAGGCAGUUUCCUG [hsa-mir-4289]
The “pull-down binding Z-score” value of the first is higher: 0.276 for the first, 0.101 for the second.

Compared with “AUCAGUUCUCAUUUUACACACUGGC [hsa-mir-24-1]”, AUCAUAAUAAAGGUGUCAUGAU [hsa-mir-3682] is lower in “pull-down binding Z-score” value: -0.0568 for the first, -0.169 for the second.

Compared with AUCAUCUCUCCCUUGGAU [hsa-mir-3683], “AUCAUGUAUAAUUAAAAAUGAU [hsa-mir-509-2_509-3_509-1]” is higher in “pull-down binding Z-score” value: -0.257 for the first, -0.0578 for the second.

First: AUCCAGUCCACUUAAUUCUGAGAAAGUCCACAGACUGGAUCGGGUCUUGGAUUUUAGCUGGAUUCAU [hsa-mir-6082]
Second: AUCCCUUAGAUGCUAAGAUGGGGAU [hsa-mir-145]
The “pull-down binding Z-score” value of the first is higher: -0.223 for the first, -0.237 for the second.

First: AUCGGUCGAGAGCGUCCUGGCUGAU [hsa-mir-3178]
Second: AUCUAUUCCAGAAGAU [hsa-mir-4696]
The “pull-down binding Z-score” value of the first is higher: -0.22 for the first, -0.62 for the second.

First: AUCUCCUUUAGGAAAACCUUCUGUGGGGAGU [hsa-mir-1296]
Second: AUCUGAAUGAUCUCAGC [hsa-mir-626]
The “pull-down binding Z-score” value of the first is lower: -0.226 for the first, 0.105 for the second.

First: AUCUGAGGUGACUGGCACAGAAGACUCAGG [hsa-mir-6735]
Second: AUCUGAUGUUGAAUACUCUUUAAGU [hsa-mir-1245a]
The “pull-down binding Z-score” value of the first is higher: 0.101 for the first, -0.281 for the second.

Going from “AUCUGCAGGGCAUUGUGCUAACAGGU [hsa-mir-4681]” to “AUCUUCCUGACCUGGUAAUAAUUAGGUGAGAAGGAU [hsa-mir-8069-2_8069-1]”, the “pull-down binding Z-score” value falls from 0.211 to -0.589.

Compared with AUGAGAAAUUGGUUUCAA [hsa-mir-8063], AUGAGCUAAAAAUCCCCAAGCUCU [hsa-mir-4769] is lower in “pull-down binding Z-score” value: -0.245 for the first, -0.358 for the second.

Compared with “AUGAUAUAUUGUGAGAGCCAUGUCAU [hsa-mir-6718]”, AUGAUUUUUGGGGUCA [hsa-mir-4678] is lower in “pull-down binding Z-score” value: -0.0702 for the first, -0.1 for the second.

Compared with “AUGCACCCAUAUUUUAAUAUCAAACUAUGACAAAUU [hsa-mir-3974]”, “AUGCAUGGCUGGUGGCGGCGUGCAG [hsa-mir-6722]” is higher in “pull-down binding Z-score” value: -0.134 for the first, 0.74 for the second.

Going from AUGCCCCAGGUGACGUGCUGGGCU [hsa-mir-4526] to “AUGCCUGAGAAUAUAUGAAGGAGGCU [hsa-mir-204]”, the “pull-down binding Z-score” value rises from 0.0558 to 0.374.

Compared with AUGCUAAGUCCAUGGGCAAACAU [hsa-mir-5704], “AUGGAGAACGCCCCCACCAGUUCCCAC [hsa-mir-6767]” is higher in “pull-down binding Z-score” value: -0.165 for the first, 0.564 for the second.

First: AUGGAGGCUGCUUCUCCUCAGCAGCUGCCAUA [hsa-mir-3651]
Second: AUGGAUAUGGGAACUGUGAUGUCCA [hsa-mir-4768]
The “pull-down binding Z-score” value of the first is lower: -0.382 for the first, 0.0446 for the second.

First: AUGGCAUUUAAGGAUUGCUAU [hsa-mir-4477a]
Second: AUGGGAGCCCAGAGACGUCCUAU [hsa-mir-8074]
The “pull-down binding Z-score” value of the first is lower: -0.473 for the first, -0.433 for the second.

With “AUGGGGCAGCUGGGAUGGUCCAAAAGGGUGGCCUCA [hsa-mir-1226]” the “pull-down binding Z-score” value was 0.406.
